In patent US12221463B2, “Method of promoting wound healing by inhibiting CCR3” (The Board of Regents of the University of Oklahoma, priority 2020, dated 2025):

T1: CCR3 (Homo sapiens, UniProt P51677)
T1 sequence (P51677 1-355): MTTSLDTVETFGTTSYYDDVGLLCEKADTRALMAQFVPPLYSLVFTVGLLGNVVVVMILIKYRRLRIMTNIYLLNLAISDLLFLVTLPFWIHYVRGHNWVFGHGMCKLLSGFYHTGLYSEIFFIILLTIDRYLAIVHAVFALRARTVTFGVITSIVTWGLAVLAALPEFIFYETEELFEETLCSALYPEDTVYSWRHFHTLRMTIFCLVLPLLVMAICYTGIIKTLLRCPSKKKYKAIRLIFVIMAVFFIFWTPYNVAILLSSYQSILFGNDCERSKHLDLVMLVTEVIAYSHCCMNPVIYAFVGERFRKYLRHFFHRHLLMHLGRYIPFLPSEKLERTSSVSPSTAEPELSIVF

B1: CCL24: CCR3-specific ligand Chemokine (C-C motif) ligand 24 (eotaxin-2), Biolegend (protein)
chain: VVIPSPCCMFFVSKRIPENRVVSYQLSSRSTCLKAGVIFTTKKGQQFCGDPKQEWVQRYMKNLDAKQKKASPRARAVA
B2: CCL26: CCR3-specific ligand Chemokine (C-C motif) ligand 26 (eotaxin-3), Biolegend (protein)
chain: TRGSDISKTCCFQYSHKPLPWTWVRSYEFTSNSCSQRAVIFTTKRGKKVCTHPRKKWVQKYISLLKTPKQL

Experiments:
CCR3 = target: T1, CCR3; settings: CCR3 agonism; Buskermolen et al. 2017; cited from earlier work
HEKn [1] = test: Cell exclusion zone assay (in vitro wound closure / migration); assay type: cell-based, human; settings: 16 hours
Protocol: HEKn were seeded (2.0×10^4 per well) around the barrier of a collagen I coated Oris Cell Migration Assay 96-well plate (Platypus, West Lebanon, NH). Cells were incubated overnight to allow for cell attachment. After incubation, the circular barriers were removed (except for reference wells), and the cells were treated with either anti-CCR3 (R&D Systems, Minneapolis, MN) (2 ug/mL), IgG control (R&D Systems, Minneapolis, MN; 2 μg/mL), CCL24 (Biolegend, […], CA), CCL26 (Biolegend, San Jose, CA), or IGF (ThermoFisher, Waltham, MA; 10 ng/mL) for 16 hours. At the end of the experiment, Calcein-AM (Life Technologies, Carlsbad, CA) (2 μM) was added prior to obtaining images with a Nikon TE2000-E inverted epi-fluorescence microscope (2× objective). ImageJ (NIH) was utilized to analyze the images.

HEKn [2] = test: Proliferation assay (PrestoBlue); assay type: cell-based, human; settings: 16 hours
Protocol: Cells were plated on a collagen I coated 96-well plate (Corning, New York, NY) at a density of 4×10^3 cells per well, and then allowed to attach overnight. The next day, cells were treated with CCL24 (Biolegend, San Diego, CA), CCL26 (Biolegend, San Diego, CA), or IGF (ThermoFisher, Waltham, MA) for 16 hours. To assess viability, PrestoBlue (Life Technologies, Carlsbad, CA) was added according to manufacturer's protocol, and results were obtained on a microplate reader (BioTek, Winooski, VT).

keratinocytes = settings: Kroeze et al. 2012, type IV collagen; cited from earlier work

Row | Molecule | oral wound healing (CCR3) | keratinocyte migration (HEKn [1]) | keratinocyte proliferation (HEKn [2]; 20 ng/mL) | keratinocyte proliferation (HEKn [2]; 50 ng/mL) | keratinocyte proliferation (HEKn [2]; 100 ng/mL) | keratinocyte proliferation (keratinocytes)
1 | CCL28: chemokine used for CCR3 agonism in cited oral wound healing study | promote | – | – | – | – | –
2 | B1 | – | did not significantly alter | significantly reduced | significantly reduced | significantly reduced | promoted
3 | B2 | – | did not significantly alter | significantly reduced | significantly reduced | significantly reduced | –
